Experimental data as given in PMC9063451.

What was measured:
[1] = target: BotI-like toxin (Buthus occitanus tunetanus) (UniProt P01488); assay: SPR
[2] = target: BotI-like toxin (Buthus occitanus tunetanus) (UniProt P01488)

B1: NbBotI-17 (VHH)
VHH: QVQLQESGGGPVQAGGSLRLSCAASGFTDSNKNVHWFRQVPGKQCERVSTITSNGVTNYADSVKGRFTASRDNSKNTVYLQMNTLKTEDTAVYYCVSVYIWESIGPSQRCRGQGTQVTVSS
- Kd [1]: 4.72 nM
- koff [1]: 0.0308 s⁻¹
- kon [1]: 6.52e+06 M⁻¹ s⁻¹
- neutralisation of the toxin's lethality in Swiss mice (i.c.v. injection after 1 h preincubation at 37°C); 2 or 4 molar excess of Nb: 50% neutralisation at 6 and 7 LD50 (LD50 of toxin (50% neutralised)) [2]: 7

B2: NbBotI-01 (VHH)
VHH: QVQLQESGGGLVQPGGSLRLSCAASGFSFTVYYMSWVRQTPGKGLEWVSGINRDGSIIDYADSVKGRFTISRDNAENTLYLEMNSRKSEDTALNDCTPHVRGGRYRTRGQGTQVTVSS
- Kd [1]: 0.0953 nM
- koff [1]: 0.000464 s⁻¹
- kon [1]: 4.87e+06 M⁻¹ s⁻¹
